# Results taken from IntAct's records for PubMed 17290227.
# B1: Docking protein 3 (Homo sapiens), Q7L591 (parent)
# chain: MTRGARLRSDARAQLNQLSLDGGTGSGQKGKCEEFPSSLSSVSPGLEAAALLLAVTMDPLETPIKDGILYQQHVKFGKKCWRKVWALLYAGGPSGVARLESWEVRDGGLGAAGDRSAGPGRRGERRVIRLADCVSVLPADGESCPRDTGAFLLTTTERSHLLAAQHRQAWMGPICQLAFPGTGEASSGSTDAQSPKRGLVPMEENSIYSSWQEVGEFPVVVQRTEAATRCQLKGPALLVLGPDAIQLREAKGTQALYSWPYHFLRKFGSDKGVFSFEAGRRCHSGEGLFAFSTPCAPDLCRAVAGAIARQRERLPELTRPQPCPLPRATSLPSLDTPGELREMPPGPEPPTSRKMHLAEPGPQSLPLLLGPEPNDLASGLYASVCKRASGPPGNEHLYENLCVLEASPTLHGGEPEPHEGPGSRSPTTSPIYHNGQDLSWPGPANDSTLEAQYRRLLELDQVEGTGRPDPQAGFKAKLVTLLSRERRKGPAPCDRP
# partner: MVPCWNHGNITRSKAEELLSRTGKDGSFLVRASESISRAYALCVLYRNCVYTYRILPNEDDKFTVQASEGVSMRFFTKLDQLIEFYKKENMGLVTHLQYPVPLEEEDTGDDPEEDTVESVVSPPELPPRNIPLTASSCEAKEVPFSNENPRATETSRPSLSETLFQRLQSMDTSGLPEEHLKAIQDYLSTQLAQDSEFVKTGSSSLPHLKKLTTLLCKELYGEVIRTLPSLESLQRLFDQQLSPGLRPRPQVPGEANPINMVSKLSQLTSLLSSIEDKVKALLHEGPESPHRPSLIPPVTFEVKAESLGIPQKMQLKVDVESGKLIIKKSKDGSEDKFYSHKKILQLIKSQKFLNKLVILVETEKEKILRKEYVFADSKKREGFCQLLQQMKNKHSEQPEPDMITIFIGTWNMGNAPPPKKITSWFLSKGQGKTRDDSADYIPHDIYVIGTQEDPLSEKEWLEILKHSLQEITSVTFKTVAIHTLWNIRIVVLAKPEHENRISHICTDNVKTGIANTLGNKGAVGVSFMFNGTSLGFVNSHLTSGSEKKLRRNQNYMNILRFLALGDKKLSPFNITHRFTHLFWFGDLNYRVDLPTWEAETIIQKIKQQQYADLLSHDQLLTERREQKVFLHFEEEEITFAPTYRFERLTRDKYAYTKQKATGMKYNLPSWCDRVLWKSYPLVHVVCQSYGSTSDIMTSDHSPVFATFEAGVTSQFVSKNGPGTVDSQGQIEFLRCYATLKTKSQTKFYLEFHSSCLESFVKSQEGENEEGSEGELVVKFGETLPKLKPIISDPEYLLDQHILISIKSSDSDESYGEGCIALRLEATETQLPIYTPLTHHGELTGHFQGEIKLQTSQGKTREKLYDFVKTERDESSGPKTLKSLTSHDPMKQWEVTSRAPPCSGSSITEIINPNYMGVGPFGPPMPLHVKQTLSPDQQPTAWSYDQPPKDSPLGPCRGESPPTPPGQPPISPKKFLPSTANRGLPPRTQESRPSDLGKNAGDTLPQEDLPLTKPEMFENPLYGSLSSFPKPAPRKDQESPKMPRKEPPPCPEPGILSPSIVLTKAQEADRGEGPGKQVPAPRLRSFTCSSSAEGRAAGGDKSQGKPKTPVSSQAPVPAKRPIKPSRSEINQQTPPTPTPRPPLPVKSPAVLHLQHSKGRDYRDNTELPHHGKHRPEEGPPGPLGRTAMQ
# Variants of: B1
# Details: with ship1_human INPP5D
row,effect of a mutation on the interaction,Variant
1,decreasing interaction,MTRGARLRSDARAQLNQLSLDGGTGSGQKGKCEEFPSSLSSVSPGLEAAALLLAVTMDPLETPIKDGILYQQHVKFGKKCWRKVWALLYAGGPSGVARLESWEVRDGGLGAAGDRSAGPGRRGERRVIRLADCVSVLPADGESCPRDTGAFLLTTTERSHLLAAQHRQAWMGPICQLAFPGTGEASSGSTDAQSPKFGLVPMEENSIYSSWQEVGEFPVVVQRTEAATRCQLKGPALLVLGPDAIQLREAKGTQALYSWPYHFLRKFGSDKGVFSFEAGRRCHSGEGLFAFSTPCAPDLCRAVAGAIARQRERLPELTRPQPCPLPRATSLPSLDTPGELREMPPGPEPPTSRKMHLAEPGPQSLPLLLGPEPNDLASGLYASVCKRASGPPGNEHLYENLCVLEASPTLHGGEPEPHEGPGSRSPTTSPIYHNGQDLSWPGPANDSTLEAQYRRLLELDQVEGTGRPDPQAGFKAKLVTLLSRERRKGPAPCDRP [R197F]
